B1: GpH7-A5/GpH7-B3 variant E269_11K/GpL16-k0 (antibody, human IgG1, kappa)
heavy 1: not shown
heavy 2: not shown
light: DIVMTQSPLSLPVTPGEPASISCQASESLVHSNRNTYLHWYLQKPGQSPQLLIYKVSNRFSGVPDRFSGSGSGTDFTLKISRVEAEDVGVYYCSQNTHVPPTFGQGTKVEIERTVAAPSVFIFPPSDEQLKSGTASVVCLLNNFYPREAKVQWKVDNALQSGNSQESVTEQDSKDSTYSLSSTLTLSKADYEKHKVYACEVTHQGLSSPVTKSFNRGEC
notes: Heterodimerized anti-glypican-3 IgG1; mutation in the GpH7-B3 chain only; also called He Ab E269K
B2: GpH7-A5/GpH7-B3 variant E269_12R/GpL16-k0 (antibody, human IgG1, kappa)
heavy 1: not shown
heavy 2: not shown
light: DIVMTQSPLSLPVTPGEPASISCQASESLVHSNRNTYLHWYLQKPGQSPQLLIYKVSNRFSGVPDRFSGSGSGTDFTLKISRVEAEDVGVYYCSQNTHVPPTFGQGTKVEIERTVAAPSVFIFPPSDEQLKSGTASVVCLLNNFYPREAKVQWKVDNALQSGNSQESVTEQDSKDSTYSLSSTLTLSKADYEKHKVYACEVTHQGLSSPVTKSFNRGEC
notes: Heterodimerized anti-glypican-3 IgG1; mutation in the GpH7-B3 chain only; also called He Ab E269R
B3: GpH7-A5/GpH7-B3 variant S267_19Q/GpL16-k0 (antibody, human IgG1, kappa)
heavy 1: not shown
heavy 2: not shown
light: DIVMTQSPLSLPVTPGEPASISCQASESLVHSNRNTYLHWYLQKPGQSPQLLIYKVSNRFSGVPDRFSGSGSGTDFTLKISRVEAEDVGVYYCSQNTHVPPTFGQGTKVEIERTVAAPSVFIFPPSDEQLKSGTASVVCLLNNFYPREAKVQWKVDNALQSGNSQESVTEQDSKDSTYSLSSTLTLSKADYEKHKVYACEVTHQGLSSPVTKSFNRGEC
notes: He Ab; alteration in one H chain only; also called He Ab
B4: GpH7-A5/GpH7-B3 variant S267_20W/GpL16-k0 (antibody, human IgG1, kappa)
heavy 1: not shown
heavy 2: not shown
light: DIVMTQSPLSLPVTPGEPASISCQASESLVHSNRNTYLHWYLQKPGQSPQLLIYKVSNRFSGVPDRFSGSGSGTDFTLKISRVEAEDVGVYYCSQNTHVPPTFGQGTKVEIERTVAAPSVFIFPPSDEQLKSGTASVVCLLNNFYPREAKVQWKVDNALQSGNSQESVTEQDSKDSTYSLSSTLTLSKADYEKHKVYACEVTHQGLSSPVTKSFNRGEC
notes: as for B3
B5: GpH7-A5/GpH7-B3 variant S298_08L/GpL16-k0 (antibody, human IgG1, kappa)
heavy 1: not shown
heavy 2: not shown
light: DIVMTQSPLSLPVTPGEPASISCQASESLVHSNRNTYLHWYLQKPGQSPQLLIYKVSNRFSGVPDRFSGSGSGTDFTLKISRVEAEDVGVYYCSQNTHVPPTFGQGTKVEIERTVAAPSVFIFPPSDEQLKSGTASVVCLLNNFYPREAKVQWKVDNALQSGNSQESVTEQDSKDSTYSLSSTLTLSKADYEKHKVYACEVTHQGLSSPVTKSFNRGEC
notes: as for B3
B6: GpH7-A5/GpH7-B3 variant V266_16H/GpL16-k0 (antibody, human IgG1, kappa)
heavy 1: not shown
heavy 2: not shown
light: DIVMTQSPLSLPVTPGEPASISCQASESLVHSNRNTYLHWYLQKPGQSPQLLIYKVSNRFSGVPDRFSGSGSGTDFTLKISRVEAEDVGVYYCSQNTHVPPTFGQGTKVEIERTVAAPSVFIFPPSDEQLKSGTASVVCLLNNFYPREAKVQWKVDNALQSGNSQESVTEQDSKDSTYSLSSTLTLSKADYEKHKVYACEVTHQGLSSPVTKSFNRGEC
notes: as for B3
B7: GpH7-A5/GpH7-B3 variant V266_19Q/GpL16-k0 (antibody, human IgG1, kappa)
heavy 1: not shown
heavy 2: not shown
light: DIVMTQSPLSLPVTPGEPASISCQASESLVHSNRNTYLHWYLQKPGQSPQLLIYKVSNRFSGVPDRFSGSGSGTDFTLKISRVEAEDVGVYYCSQNTHVPPTFGQGTKVEIERTVAAPSVFIFPPSDEQLKSGTASVVCLLNNFYPREAKVQWKVDNALQSGNSQESVTEQDSKDSTYSLSSTLTLSKADYEKHKVYACEVTHQGLSSPVTKSFNRGEC
notes: as for B3
B8: GpH7-A5/GpH7-B3 variant V266_20W/GpL16-k0 (antibody, human IgG1, kappa)
heavy 1: not shown
heavy 2: not shown
light: DIVMTQSPLSLPVTPGEPASISCQASESLVHSNRNTYLHWYLQKPGQSPQLLIYKVSNRFSGVPDRFSGSGSGTDFTLKISRVEAEDVGVYYCSQNTHVPPTFGQGTKVEIERTVAAPSVFIFPPSDEQLKSGTASVVCLLNNFYPREAKVQWKVDNALQSGNSQESVTEQDSKDSTYSLSSTLTLSKADYEKHKVYACEVTHQGLSSPVTKSFNRGEC
notes: as for B3
B9: GpH7-A5/GpH7-B3 variant Y300_10E/GpL16-k0 (antibody, human IgG1, kappa)
heavy 1: not shown
heavy 2: not shown
light: DIVMTQSPLSLPVTPGEPASISCQASESLVHSNRNTYLHWYLQKPGQSPQLLIYKVSNRFSGVPDRFSGSGSGTDFTLKISRVEAEDVGVYYCSQNTHVPPTFGQGTKVEIERTVAAPSVFIFPPSDEQLKSGTASVVCLLNNFYPREAKVQWKVDNALQSGNSQESVTEQDSKDSTYSLSSTLTLSKADYEKHKVYACEVTHQGLSSPVTKSFNRGEC
notes: as for B3

Tests used:
[1] = biological target: T1, FcγRIIb extracellular domain with C-terminal His tag (human, UniProt P31994 43-217); assay: SPR Biacore, antibody captured on antigen-peptide chip, FcγR as analyte
T1 construct: extracellular domain; Soluble receptor used as analyte in Biacore; also called FcgRIIb; CD32B
T1 sequence (looked up): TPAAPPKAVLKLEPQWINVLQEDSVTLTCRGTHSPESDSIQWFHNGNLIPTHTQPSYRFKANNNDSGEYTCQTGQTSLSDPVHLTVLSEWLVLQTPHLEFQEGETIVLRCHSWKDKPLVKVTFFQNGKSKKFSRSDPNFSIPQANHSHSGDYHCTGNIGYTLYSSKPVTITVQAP

[2] = biological target: T2, FcγRIa extracellular domain with C-terminal His tag (human, UniProt P12314 16-292); assay: as above
T2 construct: extracellular domain; Soluble receptor used as analyte in Biacore; also called FcgRI; FcgRIa
T2 sequence (P12314 16-292): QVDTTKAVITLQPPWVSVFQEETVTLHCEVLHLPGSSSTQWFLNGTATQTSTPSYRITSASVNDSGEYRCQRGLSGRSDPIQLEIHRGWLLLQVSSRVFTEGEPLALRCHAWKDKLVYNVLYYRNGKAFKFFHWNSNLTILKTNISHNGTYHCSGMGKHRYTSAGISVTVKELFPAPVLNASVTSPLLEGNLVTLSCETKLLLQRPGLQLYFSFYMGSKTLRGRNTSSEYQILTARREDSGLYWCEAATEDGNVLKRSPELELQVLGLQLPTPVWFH

[3] = biological target: T3, FcγRIIb, extracellular domain with C-terminal His tag (human, UniProt P31994 43-217); assay: SPR (Biacore), relative binding, GpH7-A5/GpH7-B3/GpL16-k0 = 100
T3 construct: extracellular domain; also called 2b; FcgRIIb; not shown: His tag at the C terminus
T3 sequence (looked up): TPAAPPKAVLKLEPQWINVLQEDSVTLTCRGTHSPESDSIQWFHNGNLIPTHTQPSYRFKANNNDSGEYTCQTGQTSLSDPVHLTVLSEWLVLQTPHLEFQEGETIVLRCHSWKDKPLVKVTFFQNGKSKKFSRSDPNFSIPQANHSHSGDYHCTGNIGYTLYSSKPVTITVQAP

[4] = biological target: T4, FcγRIIa H (FcgRIIa type H, His at position 131), extracellular domain with C-terminal His tag (human, UniProt P12318 34-217); assay: as above
T4 construct: extracellular domain; also called 2aH; FcgRIIa H; not shown: His tag at the C terminus
T4 sequence (looked up): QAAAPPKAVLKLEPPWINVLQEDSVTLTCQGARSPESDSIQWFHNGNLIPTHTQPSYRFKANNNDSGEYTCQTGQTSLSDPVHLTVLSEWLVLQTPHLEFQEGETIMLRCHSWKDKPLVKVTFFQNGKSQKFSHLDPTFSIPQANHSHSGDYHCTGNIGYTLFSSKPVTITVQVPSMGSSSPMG

[5] = biological target: T4, FcγRIIa H (FcgRIIa type H, His at …); assay: SPR; He/Con_2aH divided by He/Con_2b (FcγRIIa H binding over FcγRIIb binding)

Row | Binder | He/Con_2b [1] | He/Con_1a [2] | He/Con_2b [3] | He/Con_2aH [4] | He_2aH/2b (IIaH/IIb) [5]
1 | B1 | 17.8 relative, GpH7-A5/GpH7-B3/GpL16-k0 = 100 | 95.2 relative, GpH7-A5/GpH7-B3/GpL16-k0 = 100 | – | – | –
2 | B2 | 25.2 relative, GpH7-A5/GpH7-B3/GpL16-k0 = 100 | 97.1 relative, GpH7-A5/GpH7-B3/GpL16-k0 = 100 | – | – | –
3 | B3 | – | – | 218 % of control | 61.3 % of control | 0.28 ratio
4 | B4 | – | – | 57.2 % of control | 37.9 % of control | 0.66 ratio
5 | B5 | – | – | 108 % of control | 85 % of control | 0.78 ratio
6 | B6 | – | – | 57.2 % of control | 21.2 % of control | 0.37 ratio
7 | B7 | – | – | 89.2 % of control | 46.4 % of control | 0.52 ratio
8 | B8 | – | – | 71.9 % of control | 12 % of control | 0.17 ratio
9 | B9 | – | – | 134 % of control | 97.2 % of control | 0.73 ratio

— patent publication US20150344570A1 (published 2015)
